The series has as its target Argonaute 2 (AGO2) (human (Homo sapiens), UniProt Q9UKV8 1-859). The series can be described thus: northern blot of purified loaded AGO2.

Chain of Argonaute 2 (AGO2) (Q9UKV8 whole entry): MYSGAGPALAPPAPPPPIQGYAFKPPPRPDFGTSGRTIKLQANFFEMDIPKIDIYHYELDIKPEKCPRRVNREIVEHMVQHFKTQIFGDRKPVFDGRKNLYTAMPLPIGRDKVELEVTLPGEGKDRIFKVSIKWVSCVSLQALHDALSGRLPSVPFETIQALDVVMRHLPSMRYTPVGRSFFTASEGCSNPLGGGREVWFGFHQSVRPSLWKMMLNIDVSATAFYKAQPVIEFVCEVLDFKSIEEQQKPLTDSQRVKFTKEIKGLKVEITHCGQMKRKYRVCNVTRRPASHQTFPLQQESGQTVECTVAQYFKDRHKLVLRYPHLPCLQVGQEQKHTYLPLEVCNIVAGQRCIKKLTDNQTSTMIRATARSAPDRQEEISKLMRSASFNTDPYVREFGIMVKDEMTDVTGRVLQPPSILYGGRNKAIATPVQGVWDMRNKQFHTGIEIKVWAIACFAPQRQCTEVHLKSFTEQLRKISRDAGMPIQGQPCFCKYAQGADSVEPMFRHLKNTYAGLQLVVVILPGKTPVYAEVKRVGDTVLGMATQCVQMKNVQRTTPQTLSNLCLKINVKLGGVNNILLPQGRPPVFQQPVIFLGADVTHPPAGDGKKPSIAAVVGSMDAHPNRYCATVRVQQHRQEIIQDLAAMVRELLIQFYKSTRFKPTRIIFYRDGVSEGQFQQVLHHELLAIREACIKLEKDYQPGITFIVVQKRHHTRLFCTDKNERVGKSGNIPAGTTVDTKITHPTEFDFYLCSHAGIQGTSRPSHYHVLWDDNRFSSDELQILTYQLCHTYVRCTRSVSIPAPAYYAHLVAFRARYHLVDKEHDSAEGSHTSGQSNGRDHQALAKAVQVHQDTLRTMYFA

For UGGCAGUGUCUUAGCUGGUUGU (ssRNA) [miR-34a], the binding result was “binds”.

The values above are taken from PMC9945442.
